From US20150216795A1 (SANOFI, priority 2012, published 2015)

Assays:
[1] = test system: patients with metastatic colorectal cancer (MCRC)
Source text: Each randomized patient was to be treated until disease progression, death, or unacceptable toxicity.
Treatment arms were evenly balanced for demographics, disease characteristics and prior anti-cancer treatments, including prior exposition to bevacizumab.
Patients received a median of 9 cycles of ZALTRAP/FOLFIRI or 8 cycles of placebo/FOLFIRI.

[2] = test system: patients with metastatic colorectal cancer (MCRC); test: EFC10262 (VELOUR) randomized double-blind phase 3 study: efficacy (OS, PFS, response rate);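 also: Placebo-controlled comparison, both arms on FOLFIRI every 2 weeks until progression or intolerable toxicity, in patients progressing on or within 6 months after oxaliplatin-based combination chemotherapy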
Source text: Each randomized patient was to be treated until disease progression, death, or unacceptable toxicity. […] The predefined statistical significance level for this final analysis was 0.0466 after adjusting the type I error spent for the two interim analyses using the O'Brien-Fleming spending function.
The study included one formal interim analysis, planned for the purpose of efficacy, when 561 death events (65% information time) had occurred. Upon request of the independent Data Monitoring Committee (DMC), an additional interim analysis of OS was performed to provide an early evaluation of the benefit-risk ratio, when 315 death events (36.5% information fraction) had occurred.
A total of approximately 863 deaths were required to detect 20% hazard rate reduction in OS with 90% power using the two-sided log rank test at an overall 0.0499 alpha level. The median survival times was expected to be 11 months for the control group. The overall alpha level was split between overall survival (0.0499) and progression-free survival as a secondary efficacy endpoint (0.0001).
Approximately 1200 patients (i.e. 600 patients per treatment group) were planned to be randomized. Treatment assignment was stratified according to prior therapy with bevacizumab (yes or no), and ECOG performance status (PS) (0 vs 1 vs 2).
The enrolment started in November 2007 and was completed in March 2010. A total of 1226 patients were randomized. […] Treatment arms were evenly balanced for demographics, disease characteristics and prior anti-cancer treatments, including prior exposition to bevacizumab.
Immediately after, patients received irinotecan, 5-FU and leucovorin (FOLFIRI regimen). This treatment was repeated every 2 weeks.
Study 1 was a randomized, double-blind, placebo-controlled study in patients with metastatic colorectal cancer (mCRC) who are resistant to or have progressed during or within 6 months of receiving oxaliplatin-based combination chemotherapy, with or without prior bevacizumab. A total of 1226 patients were randomized (1:1) to receive either ZALTRAP (N=612; 4 mg per kg as a 1 hour intravenous infusion on day 1) or placebo (N=614), in combination with 5-fluorouracil plus irinotecan [FOLFIRI: irinotecan 180 mg per m2 IV infusion over 90 minutes and leucovorin (dl racemic) 400 mg per m^2 intravenous infusion over 2 hours at the same time on day 1 using a Y-line, followed by 5-FU 400 mg per m^2 intravenous bolus, followed by 5-FU 2400 mg per m^2 continuous intravenous infusion over 46-hours]. The treatment cycles on both arms were repeated every 2 weeks. Patients were treated until disease progression or unacceptable toxicity. The primary efficacy endpoint was overall survival. Treatment assignment was stratified by the ECOG performance status (0 versus 1 versus 2) and according to prior therapy with bevacizumab (yes or no).

[3] = adverse reaction, N = 611, listed as ZALTRAP/FOLFIRI
[4] = compilation of clinical and laboratory data, N = 611, listed as ZALTRAP/FOLFIRI
[5] = Kaplan-Meier, IRC, ITT population
[6] = by IRC, evaluable patient population N = 531
[7] = overall survival, Kaplan-Meier, ITT population

Substance: Ziv-aflibercept/Folfiri: ziv-aflibercept 4 mg/kg in combination with FOLFIRI (folinic acid, 5-fluorouracil and irinotecan) given intravenously every 2 weeks
- Grade 4 hypertension (hypertensive crisis) ([1]; 1 patient): 0.2%
- Grade 3 compromised wound healing ([1]; 2 patients): 0.3%
- Nephrotic syndrome ([1]; 2 patients): 0.5%
- fistulas (anal, enterovesical, enterocutaneous, colovaginal, intestinal sites) ([1]; 9 of 611 patients with mCRC): 1.5%
- Grade 3-4 ATE ([1]; 11 patients): 1.8%
- Patients with any TEAE ([1]; Safety population N = 611): 606 (99.2%) number (%) of patients
- Patients with any TEAE leading to death ([1]; Safety population N = 611): 37 (6.1%) number (%) of patients
- Patients with any TEAE leading to permanent treatment discontinuation ([1]; Safety population N = 611): 164 (26.8%) number (%) of patients
- Patients with any TEAE leading to premature treatment discontinuation ([1]; Safety population N = 611): 119 (19.5%) number (%) of patients
- Patients with any grade 3-4 TEAE ([1]; Safety population N = 611): 510 (83.5%) number (%) of patients
- Patients with any related TEAE leading to death ([1]; Safety population N = 611): 6 (1.0%) number (%) of patients
- Patients with any serious TEAE ([1]; Safety population N = 611): 294 (48.1%) number (%) of patients
- Cycle delays >7 days ([1]; Study 1): 60 % of patients
- Infections, Grade 3-4 ([1]; Study 1): 12%
- Infections, all grades ([1]; Study 1): 46%
- Alopecia (PT), All Gr ([1]; TEAE, safety population): 26.8 % of patients
- Asthenic condition (HLT), All Gr ([1]; TEAE, safety population): 60.4 % of patients
- Asthenic condition (HLT), Gr 3/4 ([1]; TEAE, safety population): 16.9 % of patients
- Constipation (PT), All Gr ([1]; TEAE, safety population): 22.4 % of patients
- Constipation (PT), Gr 3/4 ([1]; TEAE, safety population): 0.8 % of patients
- Decrease appetite (PT), All Gr ([1]; TEAE, safety population): 31.9 % of patients
- Decrease appetite (PT), Gr 3/4 ([1]; TEAE, safety population): 3.4 % of patients
- Dehydration (PT), All Gr ([1]; TEAE, safety population): 9.0 % of patients
- Diarrhea (PT), All Gr ([1]; TEAE, safety population): 69.2 % of patients
- Dysphonia (PT), All Gr ([1]; TEAE, safety population): 25.4 % of patients
- Epistaxis (PT), All Gr ([1]; TEAE, safety population): 27.7 % of patients
- GI and abdominal pains (HLT), All Gr ([1]; TEAE, safety population): 34.0 % of patients
- GI and abdominal pains (HLT), Gr 3/4 ([1]; TEAE, safety population): 5.4 % of patients
- Headache (PT), All Gr ([1]; TEAE, safety population): 22.3 % of patients
- Hypertension (grouping), All Gr ([1]; TEAE, safety population): 41.4 % of patients
- Hypertension (grouping), Gr 3/4 ([1]; TEAE, safety population): 19.3 % of patients
- Infections (SOC), All Gr ([1]; TEAE, safety population): 46.2 % of patients
- Musculoskeletal & connective pain & discomfort (HLT), All Gr ([1]; TEAE, safety population): 23.1 % of patients
- Musculoskeletal & connective pain & discomfort (HLT), Gr 3/4 ([1]; TEAE, safety population): 1.3 % of patients
- Nausea (PT), All Gr ([1]; TEAE, safety population): 53.4 % of patients
- Palmar plantar erythrodysaesthesia (PT), All Gr ([1]; TEAE, safety population): 11.0 % of patients
- Palmar plantar erythrodysaesthesia (PT), Gr 3/4 ([1]; TEAE, safety population): 2.8 % of patients
- Skin hyperpigmentation (PT), All Gr ([1]; TEAE, safety population): 8.2 % of patients
- Skin hyperpigmentation (PT), Gr 3/4 ([1]; TEAE, safety population): 0 % of patients
- Stomatitis & ulceration (HLT), All Gr ([1]; TEAE, safety population): 54.8 % of patients
- Stomatitis & ulceration (HLT), Gr 3/4 ([1]; TEAE, safety population): 13.7 % of patients
- Vomiting (PT), All Gr ([1]; TEAE, safety population): 32.9 % of patients
- Weight decrease (PT), All Gr ([1]; TEAE, safety population): 31.9 % of patients
- Weight decrease (PT), Gr 3/4 ([1]; TEAE, safety population): 2.6 % of patients
- Abdominal Pain Upper, All grades ([1]; adverse reaction, N = 611): 11%
- Abdominal Pain Upper, Grades 3-4 ([1]; adverse reaction, N = 611): 1%
- Abdominal Pain, All grades ([1]; adverse reaction, N = 611): 27%
- Abdominal Pain, Grades 3-4 ([1]; adverse reaction, N = 611): 4%
- Asthenia, All grades ([1]; adverse reaction, N = 611): 18%
- Asthenia, Grades 3-4 ([1]; adverse reaction, N = 611): 5%
- Decreased Appetite, All grades ([1]; adverse reaction, N = 611): 32%
- Decreased Appetite, Grades 3-4 ([1]; adverse reaction, N = 611): 3%
- Dehydration, All grades ([1]; adverse reaction, N = 611): 9%
- Diarrhea, All grades ([1]; adverse reaction, N = 611): 69%
- Dysphonia, All grades ([1]; adverse reaction, N = 611): 25%
- Dyspnea, All grades ([1]; adverse reaction, N = 611): 12%
- Epistaxis, All grades ([1]; adverse reaction, N = 611): 28%
- Fatigue, All grades ([1]; adverse reaction, N = 611): 48%
- Fatigue, Grades 3-4 ([1]; adverse reaction, N = 611): 13%
- Headache, All grades ([1]; adverse reaction, N = 611): 22%
- Headache, Grades 3-4 ([1]; adverse reaction, N = 611): 2%
- Hemorrhoids, All grades ([1]; adverse reaction, N = 611): 6%
- Hemorrhoids, Grades 3-4 ([1]; adverse reaction, N = 611): 0%
- Hypertension, All grades ([1]; adverse reaction, N = 611): 41%
- Hypertension, Grades 3-4 ([1]; adverse reaction, N = 611): 19%
- Leukopenia, All grades ([1]; adverse reaction, N = 611): 78%
- Leukopenia, Grades 3-4 ([1]; adverse reaction, N = 611): 16%
- Neutropenia, All grades ([1]; adverse reaction, N = 611): 67%
- Oropharyngeal Pain, All grades ([1]; adverse reaction, N = 611): 8%
- Palmar-Plantar Erythrodysesthesia Syndrome, All grades ([1]; adverse reaction, N = 611): 11%
- Palmar-Plantar Erythrodysesthesia Syndrome, Grades 3-4 ([1]; adverse reaction, N = 611): 3%
- Proctalgia, All grades ([1]; adverse reaction, N = 611): 5%
- Rectal Hemorrhage, All grades ([1]; adverse reaction, N = 611): 5%
- Rhinorrhea, All grades ([1]; adverse reaction, N = 611): 6%
- Rhinorrhea, Grades 3-4 ([1]; adverse reaction, N = 611): 0%
- Skin Hyperpigmentation, All grades ([1]; adverse reaction, N = 611): 8%
- Skin Hyperpigmentation, Grades 3-4 ([1]; adverse reaction, N = 611): 0%
- Stomatitis, All grades ([1]; adverse reaction, N = 611): 50%
- Stomatitis, Grades 3-4 ([1]; adverse reaction, N = 611): 13%
- Thrombocytopenia, All grades ([1]; adverse reaction, N = 611): 48%
- Thrombocytopenia, Grades 3-4 ([1]; adverse reaction, N = 611): 3%
- Urinary Tract Infection, All grades ([1]; adverse reaction, N = 611): 9%
- Weight decreased, All grades ([1]; adverse reaction, N = 611): 32%
- Weight decreased, Grades 3-4 ([1]; adverse reaction, N = 611): 3%
- Dehydration, Grades 3-4 [1, 3]: 4%
- Diarrhea, Grades 3-4 [1, 3]: 19%
- Neutropenia, Grades 3-4 [1, 3]: 37%
- onset of Grade 3-4 hypertension during the first two cycles of treatment ([1]; among patients developing Grade 3-4 hypertension): 54%
- Proteinuria, All grades [1, 4]: 62%
- Proteinuria, Grades 3-4 [1, 4]: 8%
- Grade 3-4 hemorrhagic events ([1]; including gastrointestinal hemorrhage, hematuria, post-procedural hemorrhage): 3%
- ALT increased, All grades ([1]; laboratory finding, N = 611): 50%
- ALT increased, Grades 3-4 ([1]; laboratory finding, N = 611): 3%
- AST increased, All grades ([1]; laboratory finding, N = 611): 62%
- AST increased, Grades 3-4 ([1]; laboratory finding, N = 611): 3%
- Serum creatinine increased, All grades ([1]; laboratory finding, N = 611): 23%
- Serum creatinine increased, Grades 3-4 ([1]; laboratory finding, N = 611): 0%
- Arterial thromboembolic events (ATE) ([1]; patients with mCRC): 2.6%
- Grade 3-4 VTE ([1]; patients with mCRC): 8%
- Grade 3-4 febrile neutropenia ([1]; patients with mCRC): 4%
- Grade 3-4 neutropenic infection/sepsis ([1]; patients with mCRC): 1.5%
- Grade 3 hypertension ([1]; patients with mCRC): 19%
- Pulmonary embolism ([1]; patients with mCRC): 5%
- bleeding/hemorrhage (all grades) ([1]; patients with mCRC): 38%
- severe hypersensitivity reactions ([1]; patients with mCRC): 0.3%
- venous thromboembolic events (VTE) ([1]; patients with mCRC): 9%
- PFS, Probability of surviving (99.99% CI), 3 months [2, 5]: 0.793
- PFS, Probability of surviving (99.99% CI), 6 months [2, 5]: 0.573
- PFS, Probability of surviving (99.99% CI), 9 months [2, 5]: 0.313
- PFS, Probability of surviving (99.99% CI), 12 months [2, 5]: 0.166
- PFS, Probability of surviving (99.99% CI), 18 months [2, 5]: 0.051
- Progression Free Survival: Number of events, n (%) ([2]; Study 1, IRC): 393 (64.2%) n (%)
- Overall Survival: Number of deaths, n (%) ([2]; Study 1, N = 612): 403 (65.8%) n (%)
- Best Overall Response: Not evaluable, % [2, 6]: (4.0%)
- Best Overall Response: Partial response, % [2, 6]: (19.8%)
- Best Overall Response: Progressive disease, % [2, 6]: (10.4%)
- Best Overall Response: Stable disease, % [2, 6]: (65.9%)
- Overall Response: Responders (Complete response or Partial response), % [2, 6]: (19.8%)
- Survival probability (95.34% CI), 3 months [2, 7]: 0.931
- Survival probability (95.34% CI), 6 months [2, 7]: 0.819
- Survival probability (95.34% CI), 9 months [2, 7]: 0.687
- Survival probability (95.34% CI), 12 months [2, 7]: 0.561
- Survival probability (95.34% CI), 18 months [2, 7]: 0.385
- Survival probability (95.34% CI), 24 months [2, 7]: 0.280
- overall survival HR (95% CI) ([2]; patients who received prior bevacizumab): 0.86
- overall survival HR (95% CI) ([2]; patients without prior bevacizumab exposure): 0.79
